# Experimental data: patent US20210161894A1, “Compositions and Methods for Modulating Liver Endothelial Cell Fenestrations” (priority 2017, published 2021)
# Entries after “also recorded” stand apart in the source; their conditions may differ.
# B1: Tumor necrosis factor-related apoptosis inducing ligand (protein, UniProt P50591 1-281, looked up)
# Tumor necrosis factor ligand …: MAMMEVQGGPSLGQTCVLIVIFTVLLQSLCVAVTYVYFTNELKQMQDKYSKSGIACFLKEDDSYWDPNDEESMNSPCWQVKWQLRQLVRKMILRTSEETISTVQEKQQNISPLVRERGPQRVAAHITGTRGRSNTLSSPNSKNEKALGRKINSWESSRSGHSFLSNLHLRNGELVIHEKGFYYIYSQTYFRFQEEIKENTKNDKQMVQYIYKYTSYPDPILLMKSARNSCWSKDAEYGLYSIYQGGIFELKENDRIFVSVTNEHLIDMDHEASFFGAFLVG
# notes: death receptor 4/5 promoter
# Key:
# [1] = tested on: isolated LSECs (liver sinusoidal endothelial cells); assay: SEM of fenestrations in isolated LSECs from young and old mice after 30 min drug treatment (second Example 7); assay type: cell-based; settings: for Diameter / Frequency / Porosity: 30 min; for effect on porosity and fenestration frequency (summary in words): young and old LSECs
# LSEC fenestrations = assay: SEM of LSEC fenestrations after drug treatments (Example 2, FIGS. 1-6); assay type: cell-based, mice; settings: for sieve plates and fenestration density on SEM images: young and old mice; for change in fenestration diameter: TRAIL 1 μg/ml
# Method in brief: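 Liver cells from young (3-4) and old (20-24 months) C57B16 mice, n=3 each, incubated 30 mins at 37° C, 5% CO2 in RPMI with or without drug; livers perfusion-fixed in 1% glutaraldehyde/4% para-formaldehyde. Blinded SEM at 10,000×; values are mean±SD of 8 images, 616-3312 fenestrations per treatment.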
# fenestrations [2] = settings: young (7 month) and old (24 month) mice; cited from earlier work
# fenestrations [3] = settings: young mice; cited from earlier work
# [4] = tested on: actin cytoskeleton of LSECs; assay: dSTORM imaging of the actin cytoskeleton; assay type: cell-based; settings: young mice
# Method in brief: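 LSECs fixed in 4% paraformaldehyde, permeabilised with Triton-X, blocked with 5% BSA and stained with Alexa Fluor 488 phalloidin, then imaged by dSTORM in OxEA buffer (up to 40,000 frames at ~75 fps). 5-8 whole-cell images per dose, collected blinded, were reconstructed and analysed for sieve plates, actin structures and densitometry.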
# Intracellular cGMP = assay: Cyclic GMP ELISA; assay type: cell-based, mice; settings: p=0.001
# Description: Assays for MTT and cGMP were performed as instructed by the kit. Briefly, MTT assays were performed following drug treatments. Cells were washed with PBS and incubated with RPMI media containing […] MTT solution. Cells were incubated at 37° C. for 4 hrs and lysed with […] solubilisation solution, 30 mins colour development followed and measured at 570 nm using a spectrophotometer. cGMP assays were also performed after drug treatments. Cells were washed with PBS and lysed with 0.1M HCl. Following sample collection the sample was acetylated and prepared with kit reagents. Samples were incubated for 18 hrs at 4° C. before examination at 410 nm with a spectrophotometer.
# [5] = tested on: human umbilical vein endothelial cells; settings: 15 mins of 1 μg/ml treatment; cited from earlier work
molecule,measurement,setting,value
"COc1cc(CC(C)N)c(OC)cc1I (centres unmarked) [DOI, 2,5-Dimethoxy-4-iodoamphetamine]","Change in Frequency, Old","[1]; old mice, 0.1 μg/ml",↑ (ns)
same,Diameter,"[1]; old mice, 0.1 μg/ml",135.27 ± 29.71 nm
same,Frequency,"[1]; old mice, 0.1 μg/ml",3.06 ± 1.00 no/area
same,Porosity,"[1]; old mice, 0.1 μg/ml",4.44 ± 1.07 %
same,Diameter,"[1]; old mice, 1 μg/ml",155.28 ± 15.33 nm
same,Frequency,"[1]; old mice, 1 μg/ml",0.67 ± 0.31 no/area
same,Porosity,"[1]; old mice, 1 μg/ml",1.31 ± 0.47%
same,effect on porosity and fenestration frequency (summary in words),[1],LSECs from old mice only were responsive
same,Diameter,"[1]; young mice, 0.1 μg/ml",133.57 ± 9.78 nm
same,Frequency,"[1]; young mice, 0.1 μg/ml",3.40 ± 1.56 no/area
same,Porosity,"[1]; young mice, 0.1 μg/ml",4.91 ± 2.02%
same,Diameter,"[1]; young mice, 1 μg/ml",135.64 ± 21.21 nm
same,Frequency,"[1]; young mice, 1 μg/ml",0.83 ± 0.75 no/area
same,Porosity,"[1]; young mice, 1 μg/ml",1.45 ± 1.27%
same,change in fenestration porosity,"LSEC fenestrations; old mice, Cytochalasin D 0.5 μg/ml, DOI 0.1 μg/ml, 7KC 9 μM, Amlodipine 20 ng/ml",increased porosity
same,change in fenestration frequency,"LSEC fenestrations; old mice, Cytochalasin D 0.5 μg/ml, DOI 0.1 μg/ml, 7KC 9 μM, Bosentan 0.1 μM, Sildenafil 300 ng/ml, Amlodipine 20 ng/ml",increased
same,sieve plates and fenestration density on SEM images,LSEC fenestrations,maintained sieve plates and increased fenestration density
same,fenestrations after in vivo administration,fenestrations [2],increased fenestrations only in young (7 month) but not old (24 month) mice
same,fenestration porosity and diameter (previously reported),fenestrations [3],increase fenestration porosity in young mice without any significant effects on fenestration diameter
B1,Diameter,"[1]; old mice, 1 ng/ml",127.50 ± 15.53 nm
same,Frequency,"[1]; old mice, 1 ng/ml",1.97 ± 0.49 no/area
same,Porosity,"[1]; old mice, 1 ng/ml",2.79 ± 0.14%
same,Diameter,"[1]; old mice, 10 ng/ml",120.08 ± 3.74 nm
same,Frequency,"[1]; old mice, 10 ng/ml",2.13 ± 0.48 no/area
same,Porosity,"[1]; old mice, 10 ng/ml",2.85 ± 0.53%
same,Diameter,"[1]; old mice, 100 ng/ml",130.88 ± 17.00 nm
same,Frequency,"[1]; old mice, 100 ng/ml",2.03 ± 0.53 no/area
same,Porosity,"[1]; old mice, 100 ng/ml",2.97 ± 0.46%
same,effect on porosity and fenestration frequency (summary in words),[1],LSECs from young mice only demonstrated significant increases in porosity and frequency
same,dose response on fenestration porosity (words),[1]; young mice,did not promote greater changes in fenestration porosity or frequency; also recorded: had the greatest activity and similar maximal efficacy to NMN but was more potent; also recorded: limited dosage range for positive effects on fenestration porosity
same,increase in fenestration frequency,[1]; young mice,40%
same,increase in porosity,[1]; young mice,60%
same,Diameter,"[1]; young mice, 1 ng/ml",137.95 ± 8.12 nm
same,Frequency,"[1]; young mice, 1 ng/ml",4.47 ± 0.43 no/area
same,Porosity,"[1]; young mice, 1 ng/ml",7.17 ± 1.49 %
same,"Change in Porosity, Young","[1]; young mice, 10 ng/ml",↑ (ns)
same,Diameter,"[1]; young mice, 10 ng/ml",140.36 ± 3.22 nm
same,Frequency,"[1]; young mice, 10 ng/ml",3.73 ± 0.46 no/area
same,Porosity,"[1]; young mice, 10 ng/ml",6.24 ± 0.52 %
same,Diameter,"[1]; young mice, 100 ng/ml",145.87 ± 6.77 nm
same,Frequency,"[1]; young mice, 100 ng/ml",3.15 ± 0.27 no/area
same,Porosity,"[1]; young mice, 100 ng/ml",5.49 ± 0.63%
same,"fenestration numbers, fenestrated cell area and sieve plate formation","[1]; young mice, sildenafil 0.3 μg/ml, amlodipine 20 ng/ml, TRAIL 1 ng/ml",increased fenestration numbers and overall fenestrated cell area with some disruption to sieve plate formation
same,sieve plate grouping on SEM images,LSEC fenestrations; old mice,greater fenestration sieve plate grouping
same,fenestration porosity,"LSEC fenestrations; old mice, 1 μg/ml",2.7±0.1%
same,change in fenestration diameter,"LSEC fenestrations; old mice, 7KC 4.5 μM, Bosentan 0.1 μM, Sildenafil 300 ng/ml",No changes in diameter
same,sieve plates and fenestration density on SEM images,LSEC fenestrations,promoted increased fenestration density and maintained sieve plate fenestration clustering
same,fenestration frequency,"LSEC fenestrations; young mice, 1 μg/ml",4.5±0.4 number/μm^2
same,fenestration porosity,"LSEC fenestrations; young mice, 1 μg/ml",7.2±1.5%
same,change in fenestration diameter,"LSEC fenestrations; young mice, Bosentan 0.1 μM, Sildenafil 300 ng/ml",No changes in diameter
same,actin changes with drug treatments (dSTORM),[4],absence of the intense actin clustering; also recorded: Disordered actin structure; also recorded: Gap formations; also recorded: Minimal actin clustering
same,increase of intracellular cGMP,Intracellular cGMP,3 fold
same,NOS and phosphorylated NOS,[5],upregulate NOS and phosphorylated NOS
